The values below are quoted from earlier work in patent US8791066B2 (Novo Nordisk A/S, priority 2004, dated 2014).

Bounds are passed on as bounds.

In the case of GLP-1(7-36)amide, the “time until peak concentrations return to baseline / cleared from the circulation” value (administered subcutaneously) is ≤ 90 min. Further, the “time to complete clearance” value (in vivo) was 12 to 13 min.
